Experiment [1] addresses Poly-L-lysine hydrobromide (MW, 70,000-150,000 Da).
Experiment [2] has the same target. Briefly: co-sedimentation; precipitation rate of LOX: LOX mixed with PLL, centrifuged at 18,000 x g for 20 min at 25 °C, LOX in the supernatant by absorbance at 280 nm; 5 µM LOX, 1 mM PLL, 5-20 mM (NH4)2SO4.

B1: L-lactate oxidase (enzyme)
chain: MNNNDIEYNAPSEIKYIDVVNTYDLEEEASKVVPHGGFNYIAGASGDEWTKRANDRAWKHKLLYPRLAQDVEAPDTSTEILGHKIKAPFIMAPIAAHGLAHTTKEAGTARAVSEFGTIMSISAYSGATFEEISEGLNGGPRWFQIYMAKDDQQNRDILDEAKSDGATAIILTADSTVSGNRDRDVKNKFVYPFGMPIVQRYLRGTAEGMSLNNIYGASKQKISPRDIEEIAGHSGLPVFVKGIQHPEDADMAIKRGASGIWVSNHGARQLYEAPGSFDTLPAIAERVNKRVPIVFDSGVRRGEHVAKALASGADVVALGRPVLFGLALGGWQGAYSVLDYFQKDLTRVMQLTGSQNVEDLKGLDLFDNPYGYEY
On to B1, for which the relative enzyme activity of LOX (0.1 µM) with 0.02 mM PLL against LOX without PLL, 0-10 mM (NH4)2SO4 (about 15 times without and about five times with 10 mM ammonium sulfate) in experiment [1] was 15 fold. The molecule further gave a percent of LOX in the droplets in experiment [2] of 90%.

The values are drawn from article PMC9877012.
